Measurements from IntAct's records for PubMed 18957540.

Molecular target: ntrk2_rat Ntrk2 (UniProt Q63604)
Sequence (Q63604 whole entry): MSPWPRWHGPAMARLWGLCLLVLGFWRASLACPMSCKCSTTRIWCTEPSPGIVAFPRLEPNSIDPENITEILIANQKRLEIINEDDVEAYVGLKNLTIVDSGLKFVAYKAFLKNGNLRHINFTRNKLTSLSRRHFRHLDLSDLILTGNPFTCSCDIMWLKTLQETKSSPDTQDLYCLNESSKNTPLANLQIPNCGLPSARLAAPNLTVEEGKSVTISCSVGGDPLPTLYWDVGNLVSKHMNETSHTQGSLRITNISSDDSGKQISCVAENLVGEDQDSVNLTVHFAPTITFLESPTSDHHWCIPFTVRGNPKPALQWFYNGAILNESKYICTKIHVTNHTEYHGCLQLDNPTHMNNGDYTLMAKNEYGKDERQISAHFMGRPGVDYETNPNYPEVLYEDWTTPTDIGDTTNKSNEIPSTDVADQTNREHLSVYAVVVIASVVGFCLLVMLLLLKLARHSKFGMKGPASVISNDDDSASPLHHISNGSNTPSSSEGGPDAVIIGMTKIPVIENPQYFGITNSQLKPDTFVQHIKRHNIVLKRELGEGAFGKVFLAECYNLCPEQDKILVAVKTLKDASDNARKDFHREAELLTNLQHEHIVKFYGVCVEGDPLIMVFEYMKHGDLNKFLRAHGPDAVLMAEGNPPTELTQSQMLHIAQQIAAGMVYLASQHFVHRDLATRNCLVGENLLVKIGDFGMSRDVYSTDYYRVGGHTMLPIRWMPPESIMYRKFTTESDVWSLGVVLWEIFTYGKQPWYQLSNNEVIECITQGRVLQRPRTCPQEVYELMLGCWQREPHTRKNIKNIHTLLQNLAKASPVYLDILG

## Protein farnesyltransferase/geranylgeranyltransferase type-1 subunit alpha (Rattus norvegicus (Rat)) (from UniProt Q04631) Y166A
  effect of a mutation on the interaction: decreasing interaction strength
